According to the supplement of paper PMC9170038:

Test system: MS2 coat protein
Experiment: apparent KD of MS2 coat protein; designed switch direction (-1 OFF switch, 1 ON switch): -1; higher = weaker reporter binding
Summary of the method: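 An oligonucleotide input, 200 uM small-molecule ligand, or no input was present during titration of SNAP-549-labelled MS2 coat protein, which was doubled from 0.7 or 1.5 nM to 3 µM. Designed RNA switches had been transcribed on Illumina chips by stalled E. coli RNA polymerase. Apparent KD per design is the median over clusters of curves fitted to normalised cluster fluorescence.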

[1] = Eterna round: R95, input ligand: FMN 200 uM
[2] = Eterna round: R95, input ligand: microRNA oligo, concentration not stated
[3] = Eterna round: R95, input ligand: none
[4] = input ligand: microRNA oligo, concentration not stated

Sequence | apparent KD of MS2 coat protein [1] [nM] | apparent KD of MS2 coat protein [2] [nM] | apparent KD of MS2 coat protein [3] [nM] | apparent KD of MS2 coat protein (input ligand: FMN 200 uM) [nM] | apparent KD of MS2 coat protein (input ligand: none) [nM] | apparent KD of MS2 coat protein [4] [nM]
AUGAGGUUAGGAUAUACAUGAGGAUCACCCAUGUUGGAGAAGGAAGUGUAAGUAGCGAGUAGAAGGAACGGAGC [JR_Exclu3_Sub060] (puzzle: Exclusion 3) | 37.5 | 51.1 | 48.4 |  |  | 
AUGCCACAUGAGGAUCACCCAUGUGAGGAUAUGGCCUGUUUGGCGUGUGCUGGCUCUGUCAGAAGGCGCGUGGG [salish99_ex1_r4_036] (Eterna round: R97, puzzle: Exclusion 1) |  |  |  | 33.9 | 25.7 | 
AUGCCGAGUGUAGGAUAUGGCCCGGAACCACGGCCAGAAGGACAUGAGGAUCACCCAUGUGGCCCGAUAUACACGGUAUCAGAC [Eternabot solution 1] (Eterna round: R96, puzzle: Exclusion NG 1) |  |  |  | 44.7 | 24.4 | 17.7
AUGGGUCCUCACGGAGCUACAUGAGGAUCACCCAUGUGUAUUGAGGAUAUCCACUGCCGAGGGCUGGAGAAGGCAGUGUACUGU [Ex NG3 #92] (Eterna round: R96, puzzle: Exclusion NG 3) |  |  |  | 124 | 108 | 89.3
AUGGUACAUGAGGAUCACCCAUGUUAGGAUAUCGCGUGACCUAAAACUAAGAGACACACGAGAAGGGACGACAU (puzzle: Exclusion 1) |  | 77.3 |  |  |  | 
AUGGUGUCAGGAUAUCUCAAAGCACAGAAUGAGCGGCUACGGGAGAAGGGACAUGAGGAUCACCCAUGUACUCU [EX4 B.29] (Eterna round: R97, puzzle: Exclusion 4) |  |  |  | 19.9 | 18.6 | 
AUGUCGGCAGGAUAUACAUGAGGAUCACCCAUGUAAAUUUUUCGUUUAACUUGAAUGUGUAGAAGGGCCAUGUA [Ex3 #69] (Eterna round: R97, puzzle: Exclusion 3) |  |  |  | 29.1 | 28.9 | 
AUGUGGGUAUGAAGGUGUAGAUAGAGCGUACGUUAUGGAACAUGAGGAUCACCCAUGUAGCUUUUUGCUCGUCUUAU [JR_SV3TOV2_Sub034] (puzzle: Sensor v3, turn-off variant 2) | 36.8 | 40.9 | 40.4 |  |  | 
AUGUUGUCAGGAUAUCUUACAUAACAAUCGUUGUUACCAUUGGAGAAGGGACAUGAGGAUCACCCAUGUUAACC [tap-tap-tappy45] (Eterna round: R97, puzzle: Exclusion 4) |  |  |  | 23.9 | 21.5 | 
AUUAAACAUGUAGGAUAUGCAUAGCAAAGCUAUGCAGAAGGACAUGAGGAUCACCCAUGUAAAAGCGUCUGAGUACAGAUGCAA [Mat - Exclusion NG 1 - Mod of JL - D89] (Eterna round: R96, puzzle: Exclusion NG 1) |  |  |  | 402 | 57 | 53.2
AUUAAAGACCGAGGAUAUCGAGGAAAUACACUGCGAGAAGGCGGGUACUCGGACGAUUCGACAUGAGGAUCACCCAUGUGCACA [Tixequ] (Eterna round: R96, puzzle: Exclusion NG 1) |  |  |  | 26.7 | 25.3 | 18.9
AUUAACUUAGGAUAUACAUGAGGAUCACCCAUGUCCCACCCGUUACCCAUGACCAUAUGUAGAAGGAAGAAGAA [Exy#9] (Eterna round: R97, puzzle: Exclusion 3) |  |  |  | 32.2 | 39.5 | 
AUUAGUAAUAAGGAUAUCACUAGCCUCGGCUAGUGAGAAGGUAUUACAUGAGGAUCACCCAUGUGAUUAAUUAA [E6/5-A2] (Eterna round: R97, puzzle: Exclusion 6) |  |  |  | 463 | 79.7 | 
AUUAGUAAUAAGGAUAUCACUAGCUUCGGCUAGUGAGAAGGUAUUACAUGAGGAUCACCCAUGUGAUUAAUUAA [E6/5-A1] (Eterna round: R97, puzzle: Exclusion 6) |  |  |  | 446 | 75.3 | 
AUUAUAAGGAGAGGAUAUCUAAUAAUAUAUAUUAGAGAAGGCUCACAUGAGGAUCACCCAUGUUUUUUUUUUUUUUUUUUUUUU [Default title] (Eterna round: R96, puzzle: Exclusion NG 1) |  |  |  | 89.5 | 71.7 | 65
AUUAUAUAGAGAGGAUAUAGAAUAUUAUUUUAACAUGAGGAUCACCCAUGUAACCUUAUGUGUAGCUAGAAGGCUCAUUUAUUA [Title] (Eterna round: R96, puzzle: Exclusion NG 2) |  |  |  |  |  | 33.9
AUUAUAUAGUAAGGAUAUAGAUUAUUAUUUUAACAUGAGGAUCACCCAUGUAGCCUUAUGUAUAACUAGAAGGUACAUUUAUUA [Title] (Eterna round: R96, puzzle: Exclusion NG 2) |  |  |  |  |  | 35.7
AUUCCACAUGAGGAUCACCCAUGUCAGGAUAUGCAUAGUCCUGCCACAUAGGACUAGCGCAGAAGGGAUCGGGC [Eternabot (L2) Solution 20] (Eterna round: R97, puzzle: Exclusion 1) |  |  |  | 53.9 | 19 | 

Sequence | apparent KD of MS2 coat protein [1] [nM] | apparent KD of MS2 coat protein [2] [nM] | apparent KD of MS2 coat protein [3] [nM] | apparent KD of MS2 coat protein (input ligand: FMN 200 uM) [nM] | apparent KD of MS2 coat protein (input ligand: none) [nM] | apparent KD of MS2 coat protein [4] [nM]
AUUGAUAGCACAGGAUAUUGAGAUUUGAAUUGACAAGAAGGGUGUACAUGAGGAUCACCCAUGUAAUGGUUGAGUGGUUGAUUA [JR_ExcNG1_Sub003] (Eterna round: R96, puzzle: Exclusion NG 1) |  |  |  | 953 | 1140 | 829
AUUGAUGUUGAGGAUAUGCUUUUAUUUAUUAUAGCAGAAGGCGAUACAUGAGGAUCACCCAUGUUCAUGGCUUU [JR_E6_Sub097] (puzzle: Exclusion 6) |  | 11 |  |  |  | 
AUUUACAAGCUAAGAUCCUACAUGAGGAUCACCCAUGUGGUCCGGUGACGUGAGUCACCGGACUUAGCUCGUCUUGG [salish99_S_TOV1_R5_083] (Eterna round: R97, puzzle: Sensor, turn-off variant 1) |  |  |  | 54.4 | 61.4 | 
AUUUAGAGAGGAUAUAUAAAGUGAAACAUGAGGAUCACCCAUGUAAUUUUAUGGAUGUAAAUAGAAGGCUCAUUUA [Mat - Exclusion 5 - JL mod - D1] (puzzle: Exclusion 5) | 23.7 | 28.9 | 30.1 |  |  | 
AUUUAGCAAGUUAGAUCCUACAUGAGGAUCACCCAUGUUGUUCGUCUUAUUUGAAGACAACACAAAAGUGUUGUCUU [Omei Mir OFFv1 B3] (Eterna round: R97, puzzle: Sensor, turn-off variant 1) |  |  |  | 107 | 100 | 
AUUUUAACAUAGGAUAUCGAAUUUAUUAUUUAACGAGAAGGAUGAACAUGAGGAUCACCCAUGUGGUAUCAUGG [JL-ex6-3.02] (puzzle: Exclusion 6) |  | 204 |  |  |  | 
CAAACCAGAGGAUAUGCGCAUAGAUCAGACUUUGUUUCUUAACAUGAGGAUCACCCAUGUAGAAGGCUGUAAAA [Ex2 #73] (Eterna round: R97, puzzle: Exclusion 2) |  |  |  | 18.4 | 17.6 | 
CAAAUCUGAGGAUAUCGAUUUUUGUACAUGAGGAUCACCCAUGUCCUUUUUAUUAAAUCCCGAGAAGGCAGUGUAU [JR_E5_Sub096] (puzzle: Exclusion 5) |  | 24.3 |  |  |  | 
CAAAUGGUUUAAGGAUAUUACAUGAGGAUCACCCAUGUUAUCGGGAUGCUUCUCUUAAAAUACGGUAAGAAGGUAGACCUAAUC [Ceveso] (Eterna round: R96, puzzle: Exclusion NG 2) |  |  |  | 451 | 84.9 | 91
CAAUAGAAAGGAUAUACAGUAGGCGUUGUGCUCGAGCACUCACAUGAGGAUCACCCAUGUAGAAGGUUCAGUUA [EX2 C.18] (Eterna round: R97, puzzle: Exclusion 2) |  |  |  | 27.9 | 17.7 | 
CAAUUAAUUAAUUAAUAAUACAUGAGGAUCACCCAUGUAGAUCCUACAUACAAGCUUUGUAGCUCGUCUUAUAAUUA [Stov1/3-A3] (Eterna round: R97, puzzle: Sensor, turn-off variant 1) |  |  |  | 368 | 417 | 
CACACCUCCGUCAGGAUAUUAAGGCACCGCCGCCAUGAGAAGGGACAUGAGGAUCACCCAUGUUAAUCGUGGAA [Betibier] (Eterna round: R97, puzzle: Brourd's mod of Exclusion 4) |  |  |  | 226 | 20.5 | 
CACCAGCGAGGAUAUACACGUGGUCUCCACUCCCGGUGGUAACAUGAGGAUCACCCAUGUAGAAGGCGCAACAU [Gecedi] (puzzle: Exclusion 2) |  | 44.8 |  |  |  | 
CACCGUUACAGAGGAUAUGGUACAUGAGGAUCACCCAUGUAAUAAAUGAGAAUUUCGGAUGUAUUCCAGAAGGCUGAAAUCGGC [Ostricism 64 - Jieux - Exclusion NG 2] (Eterna round: R96, puzzle: Exclusion NG 2) |  |  |  | 50.2 | 46.8 | 30.2
CACCGUUACCUAGGAUAUAGUACAUGAGGAUCACCCAUGUAAUAAAUGAGAAUUUCGGAUGUAUGCUAGAAGGAGGAAAUCGGC [Ostricism 49 - Jieux - Exclusion NG 2] (Eterna round: R96, puzzle: Exclusion NG 2) |  |  |  |  |  | 29.7
CACCGUUACGUAGGAUAUGUUACAUGAGGAUCACCCAUGUAAUAAAUGAGAAUUUCGAAUGUAAUACAGAAGGACGGAAUCGGC [Ostracism 70 - Jieux - Exclusion NG 2] (Eterna round: R96, puzzle: Exclusion NG 2) |  |  |  | 53.3 | 32 | 26
CACCGUUAUAUAGGAUAUGUUACAUGAGGAUCACCCAUGUAAUAAAUGAGAAUUUCGAAUGUAAUACAGAAGGAUAGAAUCGGC [Ostracism 72 - Jieux - Exclusion NG 2] (Eterna round: R96, puzzle: Exclusion NG 2) |  |  |  | 27.2 | 22.9 | 18.1
